Reference: patent US20150098945A1 (Daiichi Sankyo, published 2015)

What was measured:
[1] = molecular target: T1, human ROBO2 (pCI-hROBO2-transfected HEK293 cells) (human); experiment: flow cytometry on transfected HEK293 cells
T1 chain: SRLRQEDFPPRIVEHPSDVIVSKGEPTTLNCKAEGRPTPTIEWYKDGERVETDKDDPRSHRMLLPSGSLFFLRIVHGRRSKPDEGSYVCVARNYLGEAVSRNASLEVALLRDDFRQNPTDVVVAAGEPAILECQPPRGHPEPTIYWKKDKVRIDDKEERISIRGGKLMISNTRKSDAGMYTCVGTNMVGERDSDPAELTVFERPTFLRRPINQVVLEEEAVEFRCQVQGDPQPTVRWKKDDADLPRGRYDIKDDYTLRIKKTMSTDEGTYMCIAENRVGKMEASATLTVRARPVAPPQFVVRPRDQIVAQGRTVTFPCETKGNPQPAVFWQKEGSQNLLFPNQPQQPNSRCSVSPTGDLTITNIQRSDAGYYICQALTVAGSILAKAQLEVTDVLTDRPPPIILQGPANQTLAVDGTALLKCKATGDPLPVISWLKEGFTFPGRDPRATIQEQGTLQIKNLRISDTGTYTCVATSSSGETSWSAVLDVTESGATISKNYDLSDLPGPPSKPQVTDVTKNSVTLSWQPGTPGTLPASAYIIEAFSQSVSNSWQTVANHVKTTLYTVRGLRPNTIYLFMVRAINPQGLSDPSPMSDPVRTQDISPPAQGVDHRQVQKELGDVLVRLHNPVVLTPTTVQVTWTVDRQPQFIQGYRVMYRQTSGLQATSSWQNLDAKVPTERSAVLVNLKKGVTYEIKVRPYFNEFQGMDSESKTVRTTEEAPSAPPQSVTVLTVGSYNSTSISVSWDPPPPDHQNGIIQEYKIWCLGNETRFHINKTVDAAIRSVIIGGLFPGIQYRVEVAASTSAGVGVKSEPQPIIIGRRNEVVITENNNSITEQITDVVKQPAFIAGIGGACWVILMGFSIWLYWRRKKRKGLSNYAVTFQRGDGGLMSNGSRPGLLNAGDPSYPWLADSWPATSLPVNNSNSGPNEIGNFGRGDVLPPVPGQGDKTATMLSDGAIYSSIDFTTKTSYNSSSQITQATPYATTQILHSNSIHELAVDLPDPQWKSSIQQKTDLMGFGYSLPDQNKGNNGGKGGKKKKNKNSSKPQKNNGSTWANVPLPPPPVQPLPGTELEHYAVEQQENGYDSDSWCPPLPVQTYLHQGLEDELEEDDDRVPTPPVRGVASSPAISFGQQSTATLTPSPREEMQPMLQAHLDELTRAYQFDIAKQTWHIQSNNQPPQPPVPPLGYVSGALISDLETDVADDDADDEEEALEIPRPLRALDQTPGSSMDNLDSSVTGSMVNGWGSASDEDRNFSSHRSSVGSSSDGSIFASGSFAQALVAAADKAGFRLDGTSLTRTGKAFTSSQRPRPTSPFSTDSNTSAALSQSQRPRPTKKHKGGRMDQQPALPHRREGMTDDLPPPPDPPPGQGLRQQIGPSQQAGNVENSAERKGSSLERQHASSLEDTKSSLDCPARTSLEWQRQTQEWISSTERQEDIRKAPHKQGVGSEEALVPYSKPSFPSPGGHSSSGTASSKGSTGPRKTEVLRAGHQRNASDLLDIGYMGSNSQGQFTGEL

[2] = molecular target: T2, N-terminal FLAG-tagged cynomolgus monkey ROBO4, cynoROBO4-2 (pCI-FLAG-cynoROBO4-2) (cynomolgus monkey, UniProt Q8WZ75 28-1007 (human entry)); experiment: flow cytometry on transfected HEK293 cells
T2 chain: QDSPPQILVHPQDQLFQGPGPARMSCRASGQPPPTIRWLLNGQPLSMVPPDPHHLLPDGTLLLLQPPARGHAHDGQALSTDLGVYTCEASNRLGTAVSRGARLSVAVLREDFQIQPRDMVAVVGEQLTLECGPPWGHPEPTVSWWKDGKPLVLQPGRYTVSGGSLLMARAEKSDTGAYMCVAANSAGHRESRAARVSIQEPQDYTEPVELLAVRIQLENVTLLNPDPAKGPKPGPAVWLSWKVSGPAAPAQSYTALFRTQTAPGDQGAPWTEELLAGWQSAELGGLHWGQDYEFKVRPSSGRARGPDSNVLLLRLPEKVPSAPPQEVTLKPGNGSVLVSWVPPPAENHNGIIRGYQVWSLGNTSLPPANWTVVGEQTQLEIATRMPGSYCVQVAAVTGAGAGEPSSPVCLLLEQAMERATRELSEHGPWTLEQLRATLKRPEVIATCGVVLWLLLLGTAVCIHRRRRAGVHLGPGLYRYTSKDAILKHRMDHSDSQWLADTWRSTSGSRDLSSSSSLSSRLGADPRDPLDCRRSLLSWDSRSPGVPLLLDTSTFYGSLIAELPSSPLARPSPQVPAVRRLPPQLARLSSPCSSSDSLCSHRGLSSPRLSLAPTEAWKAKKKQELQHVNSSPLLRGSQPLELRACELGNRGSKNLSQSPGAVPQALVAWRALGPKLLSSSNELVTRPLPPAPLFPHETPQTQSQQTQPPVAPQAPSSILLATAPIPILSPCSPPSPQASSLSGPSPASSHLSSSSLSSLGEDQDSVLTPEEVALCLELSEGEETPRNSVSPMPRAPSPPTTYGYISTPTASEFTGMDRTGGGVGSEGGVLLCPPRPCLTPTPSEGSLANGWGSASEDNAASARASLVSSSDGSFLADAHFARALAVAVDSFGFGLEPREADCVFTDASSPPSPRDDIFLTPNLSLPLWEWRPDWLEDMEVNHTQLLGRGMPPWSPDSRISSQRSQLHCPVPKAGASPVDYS

binding result [2]: binds
B1: humanized MAb1 antibody H-1140 (antibody, human IgG2, kappa, V domains shown)
VH: EVQLVESGGGLVQPGGSLRLSCAASGFTFSTYAMSWVRQAPGKGLEWVATISQGGTYTYYPDSVKGRFTISRDNAKNTLYLQMNSLRAEDTAVYYCARLIYYDYLDYWGQGTLVTVSS
VL: DIVMTQSPLSLPVTLGEPASISCRSSQSLENSNGNTYLNWYLQKPGQSPQLLIYRVSNRFSGVPDRFSGSGSGTDFTLKISRVEAEDVGVYYCLQVTHVPWTFGPGTKVDIKR
notes: Human IgG2 / kappa constant regions; also called hMAb1-H2-type heavy chain + hMAb1-L1-type light chain
binding result [1]: no binding (tested: 10 µg/mL (method of 4)-4-2))
